Reference: patent US10941182 (Amgen, dated 2021)
Starred links: 1 amine or outer side, 2 acyl side, 3 side chain; linkers in the order of their positions; H or OH if unused. Non-standard residues stand in square brackets, D forms with d. *: point of attachment. NPipG = 2-(piperidin-4-ylamino)acetic acid, O=C(CN(C1CCN([*:3])CC1)[*:1])[*:2]; AC4Abu = α-carboxy-4-aminobutyric acid, O=C(C(CCN[*:1])C(=O)[*:3])[*:2]; Oic = O=C(O)[C@@H]1C[C@@H]2CCCC[C@@H]2N1; Phe(4-Cl) = N[C@@H](Cc1ccc(Cl)cc1)C(=O)O; Phe(4-F) = N[C@@H](Cc1ccc(F)cc1)C(=O)O; γGlu = O=C(O)[C@H](CCC(=O)[*:2])N[*:1]; d(β3hF) = N[C@@H](CC(=O)O)Cc1ccccc1; Igl = N[C@H](C(=O)O)C1Cc2ccccc2C1; NMeR = CN[C@@H](CCCNC(=N)N)C(=O)O; Palmitoyl = CCCCCCCCCCCCCCCC(=O)*; 3Pal = N[C@@H](Cc1cccnc1)C(=O)O; Cha = N[C@@H](CC1CCCCC1)C(=O)O; αMeOrn = C[C@](N)(CCCN)C(=O)O; β3hP = O=C(O)C[C@@H]1CCCN1; Nle = CCCC[C@H](N)C(=O)O; Dab = NCC[C@H](N)C(=O)O; Dap = NC[C@H](N)C(=O)O; AEEA = NCCOCCOCC(=O)O; Aib = CC(C)(N)C(=O)O; Inp = O=C(O)C1CCNCC1; Nip = nipecotic acid; Sar = CNCC(=O)O

T1: human APJ receptor (human, UniProt P35414 1-380)
T1 sequence (looked up): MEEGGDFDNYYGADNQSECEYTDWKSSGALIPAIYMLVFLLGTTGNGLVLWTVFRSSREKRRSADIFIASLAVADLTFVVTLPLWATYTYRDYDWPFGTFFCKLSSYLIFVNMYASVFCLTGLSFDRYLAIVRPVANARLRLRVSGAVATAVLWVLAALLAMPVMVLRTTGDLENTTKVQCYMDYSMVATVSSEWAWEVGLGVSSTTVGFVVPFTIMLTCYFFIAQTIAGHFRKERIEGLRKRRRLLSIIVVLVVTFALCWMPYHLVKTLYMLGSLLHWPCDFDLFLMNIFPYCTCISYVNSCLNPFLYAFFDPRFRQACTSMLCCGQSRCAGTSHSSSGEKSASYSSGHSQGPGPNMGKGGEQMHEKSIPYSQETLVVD

T2: rat APJ receptor (rat, UniProt Q9JHG3 1-377)
T2 sequence (looked up): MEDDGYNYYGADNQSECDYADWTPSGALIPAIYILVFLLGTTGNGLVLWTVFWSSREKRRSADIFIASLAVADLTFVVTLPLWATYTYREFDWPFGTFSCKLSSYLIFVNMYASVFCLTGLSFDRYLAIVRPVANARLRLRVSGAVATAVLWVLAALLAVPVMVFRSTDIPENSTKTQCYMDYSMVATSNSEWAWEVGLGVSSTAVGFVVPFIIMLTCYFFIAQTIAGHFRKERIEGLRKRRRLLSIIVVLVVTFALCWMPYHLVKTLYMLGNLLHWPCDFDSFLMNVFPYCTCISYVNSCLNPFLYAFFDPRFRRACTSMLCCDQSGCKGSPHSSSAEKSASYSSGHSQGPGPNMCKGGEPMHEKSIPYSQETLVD


How the values were obtained:
[1] = molecular target: T1, human APJ receptor; assay: cell-based or functional assay
[2] = molecular target: T2, rat APJ receptor; assay: cell-based or functional assay

Binder | EC50 Human APJ Receptor [1] [nM] | EC50 Rat APJ Receptor [2] [nM]
Palmitoyl-[γGlu][AEEA][AEEA][dQ]RP[NMeR][Cha]SHKG[β3hP][Nle][Phe(4-Cl)]-OH (SMILES CCCCCCCCCCCCCCCC(=O)N[C@@H](CCC(=O)NCCOCCOCC(=O)NCCOCCOCC(=O)N[C@H](CCC(N)=O)C(=O)N[C@@H](CCCNC(=N)N)C(=O)N1CCC[C@H]1C(=O)N(C)[C@@H](CCCNC(=N)N)C(=O)N[C@@H](CC1CCCCC1)C(=O)N[C@@H](CO)C(=O)N[C@@H](Cc1c[nH]cn1)C(=O)N[C@@H](CCCCN)C(=O)NCC(=O)N1CCC[C@H]1CC(=O)N[C@@H](CCCC)C(=O)N[C@@H](Cc1ccc(Cl)cc1)C(=O)O)C(=O)O) [SEQ ID NO: 613] | 1.66 | 38.8
Palmitoyl-[γGlu][AEEA][AEEA][dQ]RP[NMeR][Cha]SH[3Pal]G[Oic][Nle][β3hP][d(β3hF)]-OH (SMILES CCCCCCCCCCCCCCCC(=O)N[C@@H](CCC(=O)NCCOCCOCC(=O)NCCOCCOCC(=O)N[C@H](CCC(N)=O)C(=O)N[C@@H](CCCNC(=N)N)C(=O)N1CCC[C@H]1C(=O)N(C)[C@@H](CCCNC(=N)N)C(=O)N[C@@H](CC1CCCCC1)C(=O)N[C@@H](CO)C(=O)N[C@@H](Cc1c[nH]cn1)C(=O)N[C@@H](Cc1cccnc1)C(=O)NCC(=O)N1[C@H](C(=O)N[C@@H](CCCC)C(=O)N2CCC[C@H]2CC(=O)N[C@@H](CC(=O)O)Cc2ccccc2)C[C@@H]2CCCC[C@@H]21)C(=O)O) [SEQ ID NO: 620] | 7.42 | 14.9
Palmitoyl-[γGlu][AEEA][AEEA][dQ]RP[NMeR][Cha]SH[Phe(4-Cl)]G[Oic][Nle][β3hP][d(β3hF)]-OH (SMILES CCCCCCCCCCCCCCCC(=O)N[C@@H](CCC(=O)NCCOCCOCC(=O)NCCOCCOCC(=O)N[C@H](CCC(N)=O)C(=O)N[C@@H](CCCNC(=N)N)C(=O)N1CCC[C@H]1C(=O)N(C)[C@@H](CCCNC(=N)N)C(=O)N[C@@H](CC1CCCCC1)C(=O)N[C@@H](CO)C(=O)N[C@@H](Cc1c[nH]cn1)C(=O)N[C@@H](Cc1ccc(Cl)cc1)C(=O)NCC(=O)N1[C@H](C(=O)N[C@@H](CCCC)C(=O)N2CCC[C@H]2CC(=O)N[C@@H](CC(=O)O)Cc2ccccc2)C[C@@H]2CCCC[C@@H]21)C(=O)O) [SEQ ID NO: 621] | 16.4 | 26.1
Palmitoyl-[AC4Abu][AEEA][AEEA][dQ]RP[NMeR][Cha]SHKG[Nip][Nle][Aib][Phe(4-Cl)]-OH [SEQ ID NO: 582] | 8.5 | 29.3
Palmitoyl-[AC4Abu][AEEA][AEEA][dQ]RP[NMeR][Cha]SHKG[Inp][Nle][Aib][Phe(4-Cl)]-OH (SMILES CCCCCCCCCCCCCCCC(=O)NCCC(C(=O)O)C(=O)NCCOCCOCC(=O)NCCOCCOCC(=O)N[C@H](CCC(N)=O)C(=O)N[C@@H](CCCNC(=N)N)C(=O)N1CCC[C@H]1C(=O)N(C)[C@@H](CCCNC(=N)N)C(=O)N[C@@H](CC1CCCCC1)C(=O)N[C@@H](CO)C(=O)N[C@@H](Cc1c[nH]cn1)C(=O)N[C@@H](CCCCN)C(=O)NCC(=O)N1CCC(C(=O)N[C@@H](CCCC)C(=O)NC(C)(C)C(=O)N[C@@H](Cc2ccc(Cl)cc2)C(=O)O)CC1) [SEQ ID NO: 583] | 5.96 | 49.2
Palmitoyl-[γGlu][AEEA][AEEA][dQ]RP[NMeR][Cha]SH[Phe(4-F)]G[Oic][Nle][β3hP][d(β3hF)]-OH (SMILES CCCCCCCCCCCCCCCC(=O)N[C@@H](CCC(=O)NCCOCCOCC(=O)NCCOCCOCC(=O)N[C@H](CCC(N)=O)C(=O)N[C@@H](CCCNC(=N)N)C(=O)N1CCC[C@H]1C(=O)N(C)[C@@H](CCCNC(=N)N)C(=O)N[C@@H](CC1CCCCC1)C(=O)N[C@@H](CO)C(=O)N[C@@H](Cc1c[nH]cn1)C(=O)N[C@@H](Cc1ccc(F)cc1)C(=O)NCC(=O)N1[C@H](C(=O)N[C@@H](CCCC)C(=O)N2CCC[C@H]2CC(=O)N[C@@H](CC(=O)O)Cc2ccccc2)C[C@@H]2CCCC[C@@H]21)C(=O)O) [SEQ ID NO: 622] | 11.8 | 19.7
Palmitoyl-[γGlu][AEEA][AEEA][dQ]RP[NMeR][Cha]SH[αMeOrn]G[Oic][Nle][β3hP][d(β3hF)]-OH (SMILES CCCCCCCCCCCCCCCC(=O)N[C@@H](CCC(=O)NCCOCCOCC(=O)NCCOCCOCC(=O)N[C@H](CCC(N)=O)C(=O)N[C@@H](CCCNC(=N)N)C(=O)N1CCC[C@H]1C(=O)N(C)[C@@H](CCCNC(=N)N)C(=O)N[C@@H](CC1CCCCC1)C(=O)N[C@@H](CO)C(=O)N[C@@H](Cc1c[nH]cn1)C(=O)N[C@@](C)(CCCN)C(=O)NCC(=O)N1[C@H](C(=O)N[C@@H](CCCC)C(=O)N2CCC[C@H]2CC(=O)N[C@@H](CC(=O)O)Cc2ccccc2)C[C@@H]2CCCC[C@@H]21)C(=O)O) [SEQ ID NO: 619] | 26.2 | 125

Continued, values first:

EC50 Human APJ Receptor [1] [nM] | EC50 Rat APJ Receptor [2] [nM] | Binder
12.2 | 24.6 | Palmitoyl-[γGlu][AEEA][AEEA][dQ]RP[NMeR][Cha]SHK[Sar][Oic][Nle][β3hP][d(β3hF)]-OH (SMILES CCCCCCCCCCCCCCCC(=O)N[C@@H](CCC(=O)NCCOCCOCC(=O)NCCOCCOCC(=O)N[C@H](CCC(N)=O)C(=O)N[C@@H](CCCNC(=N)N)C(=O)N1CCC[C@H]1C(=O)N(C)[C@@H](CCCNC(=N)N)C(=O)N[C@@H](CC1CCCCC1)C(=O)N[C@@H](CO)C(=O)N[C@@H](Cc1c[nH]cn1)C(=O)N[C@@H](CCCCN)C(=O)N(C)CC(=O)N1[C@H](C(=O)N[C@@H](CCCC)C(=O)N2CCC[C@H]2CC(=O)N[C@@H](CC(=O)O)Cc2ccccc2)C[C@@H]2CCCC[C@@H]21)C(=O)O) [SEQ ID NO: 626]
1.43 | 9.16 | Palmitoyl-[γGlu][AEEA][AEEA][dQ]RP[NMeR][Cha]SH[Dab]G[Oic][Nle][β3hP][d(β3hF)]-OH (SMILES CCCCCCCCCCCCCCCC(=O)N[C@@H](CCC(=O)NCCOCCOCC(=O)NCCOCCOCC(=O)N[C@H](CCC(N)=O)C(=O)N[C@@H](CCCNC(=N)N)C(=O)N1CCC[C@H]1C(=O)N(C)[C@@H](CCCNC(=N)N)C(=O)N[C@@H](CC1CCCCC1)C(=O)N[C@@H](CO)C(=O)N[C@@H](Cc1c[nH]cn1)C(=O)N[C@@H](CCN)C(=O)NCC(=O)N1[C@H](C(=O)N[C@@H](CCCC)C(=O)N2CCC[C@H]2CC(=O)N[C@@H](CC(=O)O)Cc2ccccc2)C[C@@H]2CCCC[C@@H]21)C(=O)O) [SEQ ID NO: 623]
21.1 | 99.7 | Palmitoyl-[γGlu][AEEA][AEEA][dQ]RP[NMeR][Cha]SH[Dap]G[Oic][Nle][β3hP][d(β3hF)]-OH (SMILES CCCCCCCCCCCCCCCC(=O)N[C@@H](CCC(=O)NCCOCCOCC(=O)NCCOCCOCC(=O)N[C@H](CCC(N)=O)C(=O)N[C@@H](CCCNC(=N)N)C(=O)N1CCC[C@H]1C(=O)N(C)[C@@H](CCCNC(=N)N)C(=O)N[C@@H](CC1CCCCC1)C(=O)N[C@@H](CO)C(=O)N[C@@H](Cc1c[nH]cn1)C(=O)N[C@@H](CN)C(=O)NCC(=O)N1[C@H](C(=O)N[C@@H](CCCC)C(=O)N2CCC[C@H]2CC(=O)N[C@@H](CC(=O)O)Cc2ccccc2)C[C@@H]2CCCC[C@@H]21)C(=O)O) [SEQ ID NO: 624]
11.1 | 20 | Palmitoyl-[γGlu][AEEA][AEEA][dQ]RP[NMeR][Cha]SH[Igl]G[Oic][Nle][β3hP][d(β3hF)]-OH (SMILES CCCCCCCCCCCCCCCC(=O)N[C@@H](CCC(=O)NCCOCCOCC(=O)NCCOCCOCC(=O)N[C@H](CCC(N)=O)C(=O)N[C@@H](CCCNC(=N)N)C(=O)N1CCC[C@H]1C(=O)N(C)[C@@H](CCCNC(=N)N)C(=O)N[C@@H](CC1CCCCC1)C(=O)N[C@@H](CO)C(=O)N[C@@H](Cc1c[nH]cn1)C(=O)N[C@H](C(=O)NCC(=O)N1[C@H](C(=O)N[C@@H](CCCC)C(=O)N2CCC[C@H]2CC(=O)N[C@@H](CC(=O)O)Cc2ccccc2)C[C@@H]2CCCC[C@@H]21)C1Cc2ccccc2C1)C(=O)O) [SEQ ID NO: 625]
10.7 | > 4170 | Palmitoyl-[γGlu][AEEA][AEEA][dQ]RP[NMeR][Cha]SH[NPipG]G[Oic][Nle][β3hP][d(β3hF)]-OH (SMILES CCCCCCCCCCCCCCCC(=O)N[C@@H](CCC(=O)NCCOCCOCC(=O)NCCOCCOCC(=O)N[C@H](CCC(N)=O)C(=O)N[C@@H](CCCNC(=N)N)C(=O)N1CCC[C@H]1C(=O)N(C)[C@@H](CCCNC(=N)N)C(=O)N[C@@H](CC1CCCCC1)C(=O)N[C@@H](CO)C(=O)N[C@@H](Cc1c[nH]cn1)C(=O)N(CC(=O)NCC(=O)N1[C@H](C(=O)N[C@@H](CCCC)C(=O)N2CCC[C@H]2CC(=O)N[C@@H](CC(=O)O)Cc2ccccc2)C[C@@H]2CCCC[C@@H]21)C1CCNCC1)C(=O)O) [SEQ ID NO: 633]
